This note sets out measurements from the supplement of paper PMC5998384.

Data set [1] has as its system HeLa Kyoto. Kind of data set: solubility in G1/S (NP-40 vs SDS abundance) (log2 ratio); higher = more soluble. The settings on record: cell cycle stage: G1/S.
The subject of data set [2] is HeLa Kyoto. In words: melting temperature (median over replicates), in situ; higher = more thermally stable.
For data set [3], the system named is HeLa Kyoto. Kind of data set: solubility change mitosis vs G1/S (difference of NP-40 vs SDS log2 ratios) (log2 ratio difference); higher = more soluble in mitosis.
Data set [4] has as its system HeLa Kyoto. In words: thermal stability score vs G1/S (z-score of summed log2 fold changes over temperatures); higher = more thermally stable than in G1/S.
Where [5] appears, read: cell cycle stage: early G1 (4.5 h after nocodazole release).
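For melting temperature (median over replicates), in situ in this document: HeLa Kyoto cells synchronized by double thymidine or nocodazole block, proteins quantified by TMT10plex mass spectrometry, three independent biological replicates.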
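For solubility change mitosis vs G1/S (difference of NP-40 vs SDS log2 ratios) in this document: synchronized HeLa Kyoto cells (double thymidine block for G1/S, nocodazole release for mitosis), protein amounts in NP-40 versus SDS lysates quantified by mass spectrometry, three biological replicates.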
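For solubility in G1/S (NP-40 vs SDS abundance) in this document: HeLa Kyoto cells arrested at G1/S by double thymidine block, proteins quantified by TMT10plex mass spectrometry in mild NP-40 versus SDS extracts, three biological replicates.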
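For thermal stability score vs G1/S (z-score of summed log2 fold changes over temperatures) in this document: synchronized HeLa Kyoto cells, proteins quantified by TMT10plex mass spectrometry, three biological replicates, mitosis taken 0.5 h after nocodazole release, G1/S directly after double thymidine block.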

Regarding “MHSEAEESKEVATDVFNSKNLAVQAQKKILGKMVSKSIATTLIDDTSSEVLDELYRVTREYTQNKKEAEKIIKNLIKTVIKLAILYRNNQFNQDELALMEKFKKKVHQLAMTVVSFHQVDYTFDRNVLSRLLNECREMLHQIIQRHLTAKSHGRVNNVFDHFSDCEFLAALYNPFGNFKPHLQKLCDGINKMLDEENI [TNFAIP8]”, in the data set on HeLa Kyoto [1], the “solubility in G1/S (log2)” value stood at 0.339. Also, the figures for the melting temperature in the data set with HeLa Kyoto [2] (cell cycle stage: G1/S) and in the data set on HeLa Kyoto [2] (cell cycle stage: mitosis) were 51.9 °C and 51.7 °C, respectively. In addition, the “solubility change mitosis (log2)” value in the data set with HeLa Kyoto [3] is -0.272. For the same substance, the thermal stability score was 0.429 with HeLa Kyoto [4] (setting [5]) and -0.108 with HeLa Kyoto [4] (cell cycle stage: mitosis).
Regarding “MSGSMATAEASGSDGKGQEVETSVTYYRLEEVAKRNSLKELWLVIHGRVYDVTRFLNEHPGGEEVLLEQAGVDASESFEDVGHSSDAREMLKQYYIGDIHPSDLKPESGSKDPSKNDTCKSCWAYWILPIIGAVLLGFLYRYYTSESKSS [CYB5B]”, the “solubility in G1/S (log2)” value with HeLa Kyoto [1] is -0.0447. For the same substance, in the data set with HeLa Kyoto [2] (cell cycle stage: G1/S), the melting temperature was found to be 57.2 °C. Moreover, the “solubility change mitosis (log2)” value in the data set with HeLa Kyoto [3] is 0.0898. Besides, the thermal stability score in the data set with HeLa Kyoto [4] (setting [5]) is 1.14; in the data set on HeLa Kyoto [4] (cell cycle stage: mitosis), -0.285.
Take “MLPAALLRRPGLGRLVRHARAYAEAAAAPAAASGPNQMSFTFASPTQVFFNGANVRQVDVPTLTGAFGILAAHVPTLQVLRPGLVVVHAEDGTTSKYFVSSGSIAVNADSSVQLLAEEAVTLDMLDLGAAKANLEKAQAELVGTADEATRAEIQIRIEANEALVKALE [ATP5D]”: the “solubility in G1/S (log2)” value with HeLa Kyoto [1] was found to be 0.603. Further, the results for the melting temperature in the data set on HeLa Kyoto [2] (cell cycle stage: G1/S) and in the data set with HeLa Kyoto [2] (cell cycle stage: mitosis) were 55.7 °C and 54.5 °C, respectively. In the data set with HeLa Kyoto [3], the “solubility change mitosis (log2)” value was -0.0082. Besides, the values for the thermal stability score with HeLa Kyoto [4] (setting [5]) and with HeLa Kyoto [4] (cell cycle stage: mitosis) were -2.35 and -1.13, respectively.
Take VPS13A: the “solubility in G1/S (log2)” value in the data set on HeLa Kyoto [1] was -0.236. In addition, the melting temperature in the data set with HeLa Kyoto [2] (cell cycle stage: G1/S) stood at 53.6 °C; in the data set with HeLa Kyoto [2] (cell cycle stage: mitosis), 53.7 °C. Further, in the data set with HeLa Kyoto [3], the “solubility change mitosis (log2)” value was -0.144. Further, the thermal stability score in the data set with HeLa Kyoto [4] (setting [5]) is -1.93; in the data set on HeLa Kyoto [4] (cell cycle stage: mitosis), -1.94.
Consider “MAKRNAEKELTDRNWDQEDEAEEVGTFSMASEEVLKNRAIKKAKRRNVGFESDTGGAFKGFKGLVVPSGGGRFSGFGSGAGGKPLEGLSNGNNITSAPPFASAKAAADPKVAFGSLAANGPTTLVDKVSNPKTNGDSQQPSSSGLASSKACVGNAYHKQLAALNCSVRDWIVKHVNTNPLCDLTPIFKDYEKYLANIEQQHGNSGRNSESESNKVAAETQSPSLFGSTKLQQESTFLFHGNKTEDTPDKKMEVASEKKTDPSSLGATSASFNFGKKVDSSVLGSLSSVPLTGFSFSPGNSSLFGKDTTQSKPVSSPFPTKPLEGQAEGDSGECKGGDEEENDEPPKVVVTEVKEEDAFYSKKCKLFYKKDNEFKEKGIGTLHLKPTANQKTQLLVRADTNLGNILLNVLIPPNMPCTRTGKNNVLIVCVPNPPIDEKNATMPVTMLIRVKTSEDADELHKILLEKKDA [NUP50]”, for which, in the data set with HeLa Kyoto [1], the “solubility in G1/S (log2)” value came to 0.204. Moreover, the melting temperature stood at 51.9 °C in the data set on HeLa Kyoto [2] (cell cycle stage: G1/S) and 52.8 °C in the data set on HeLa Kyoto [2] (cell cycle stage: mitosis). Also, in the data set with HeLa Kyoto [3], the “solubility change mitosis (log2)” value turned out to be 0.0955. The thermal stability score was -1.56 in the data set on HeLa Kyoto [4] (setting [5]) and -1.75 with HeLa Kyoto [4] (cell cycle stage: mitosis).
Regarding GEMIN5, in the data set with HeLa Kyoto [1], the “solubility in G1/S (log2)” value was -0.199. The melting temperature was 49.4 °C with HeLa Kyoto [2] (cell cycle stage: G1/S) and 49.7 °C in the data set with HeLa Kyoto [2] (cell cycle stage: mitosis). In addition, the “solubility change mitosis (log2)” value with HeLa Kyoto [3] is -0.155. Moreover, the thermal stability score in the data set on HeLa Kyoto [4] (setting [5]) was -0.261; with HeLa Kyoto [4] (cell cycle stage: mitosis), 1.19.
Take “MEEAELVKGRLQAITDKRKIQEEISQKRLKIEEDKLKHQHLKKKALREKWLLDGISSGKEQEEMKKQNQQDQHQIQVLEQSILRLEKEIQDLEKAELQISTKEEAILKKLKSIERTTEDIIRSVKVEREERAEESIEDIYANIPDLPKSYIPSRLRKEINEEKEDDEQNRKALYAMEIKVEKDLKTGESTVLSSIPLPSDDFKGTGIKVYDDGQKSVYAVSSNHSAAYNGTDGLAPVEVEELLRQASERNSKSPTEYHEPVYANPFYRPTTPQRETVTPGPNFQERIKIKTNGLGIGVNESIHNMGNGLSEERGNNFNHISPIPPVPHPRSVIQQAEEKLHTPQKRLMTPWEESNVMQDKDAPSPKPRLSPRETIFGKSEHQNSSPTCQEDEEDVRYNIVHSLPPDINDTEPVTMIFMGYQQAEDSEEDKKFLTGYDGIIHAELVVIDDEEEEDEGEAEKPSYHPIAPHSQVYQPAKPTPLPRKRSEASPHENTNHKSPHKNSISLKEQEESLGSPVHHSPFDAQTTGDGTEDPSLTALRMRMAKLGKKVI [PALMD]”: in the data set with HeLa Kyoto [1], the “solubility in G1/S (log2)” value was determined as 0.412. Also, the melting temperature in the data set with HeLa Kyoto [2] (cell cycle stage: G1/S) was 53.2 °C; in the data set on HeLa Kyoto [2] (cell cycle stage: mitosis), 53.1 °C. In the data set with HeLa Kyoto [3], the “solubility change mitosis (log2)” value stood at 0.124. Further, the values for the thermal stability score with HeLa Kyoto [4] (setting [5]) and in the data set on HeLa Kyoto [4] (cell cycle stage: mitosis) were -0.598 and 0.967, respectively.
On to “MAPLLLQLAVLGAALAAAALVLISIVAFTTATKMPALHRHEEEKFFLNAKGQKETLPSIWDSPTKQLSVVVPSYNEEKRLPVMMDEALSYLEKRQKRDPAFTYEVIVVDDGSKDQTSKVAFKYCQKYGSDKVRVITLVKNRGKGGAIRMGIFSSRGEKILMADADGATKFPDVEKLEKGLNDLQPWPNQMAIACGSRAHLEKESIAQRSYFRTLLMYGFHFLVWFLCVKGIRDTQCGFKLFTREAASRTFSSLHVERWAFDVELLYIAQFFKIPIAEIAVNWTEIEGSKLVPFWSWLQMGKDLLFIRLRYLTGAWRLEQTRKMN [ALG5]”, for which, in the data set on HeLa Kyoto [1], the “solubility in G1/S (log2)” value was -0.514. The melting temperature was 53 °C with HeLa Kyoto [2] (cell cycle stage: G1/S) and 53.8 °C with HeLa Kyoto [2] (cell cycle stage: mitosis). Moreover, the “solubility change mitosis (log2)” value in the data set on HeLa Kyoto [3] is -0.147. In addition, the thermal stability score with HeLa Kyoto [4] (setting [5]) is -0.322; in the data set with HeLa Kyoto [4] (cell cycle stage: mitosis) it was -1.32.
On to PTPN23, for which the “solubility in G1/S (log2)” value in the data set on HeLa Kyoto [1] was 0.216. The melting temperature with HeLa Kyoto [2] (cell cycle stage: G1/S) was 49.6 °C; in the data set on HeLa Kyoto [2] (cell cycle stage: mitosis), 49.2 °C. For the same substance, the “solubility change mitosis (log2)” value in the data set with HeLa Kyoto [3] is -0.134. Moreover, the thermal stability score in the data set with HeLa Kyoto [4] (setting [5]) was -1.39; in the data set with HeLa Kyoto [4] (cell cycle stage: mitosis) it was -2.28.
